Results taken from the MegaScale stability set (Tsuboyama et al. 2023).

B1: 1ZHC (parent)
chain: HEFRDEISVLKANNPHFDKIFEKHNQLDDDIKTAEQQNASDAEVSHMKKQKLKLKDEIHSMIIEYREK

Variants of: B1
Experiment: folding stability dG (cDNA display proteolysis); higher = more stable
Settings: PBS, room temperature

Variant	folding stability dG [kcal/mol]
HEFRDEISVLKANNPHFDKIFEKHNQLDDDIKTAIQQNASDAEVSHMKKQKLKLKDEIHSMIIEYREK [E35I]	1.68
HEFRDEISVLKANNPHFDKIFEKHNQLDDDIKTAYQQNASDAEVSHMKKQKLKLKDEIHSMIIEYREK [E35Y]	0.895
HEFRDEISVLKANNPHFDKIFEKHNQLDDDIKTAKQQNASDAEVSHMKKQKLKLKDEIHSMIIEYREK [E35K]	0.972
HEFRDEISVLKANNPHFDKIFEKHNQLDDDIKTAGQQNASDAEVSHMKKQKLKLKDEIHSMIIEYREK [E35G]	-0.433
HEFRDEISVLKANNPHFDKIFEKHNQLDDDIKTARQQNASDAEVSHMKKQKLKLKDEIHSMIIEYREK [E35R]	0.348
HEFRDEISVLKANNPHFDKIFEKHNQLDDDIKTAWQQNASDAEVSHMKKQKLKLKDEIHSMIIEYREK [E35W]	0.403
HEFRDEISVLKANNPHFDKIFEKHNQLDDDIKTAHQQNASDAEVSHMKKQKLKLKDEIHSMIIEYREK [E35H]	-0.572
HEFRDEISVLKANNPHFDKIFEKHNQLDDDIKTAQQQNASDAEVSHMKKQKLKLKDEIHSMIIEYREK [E35Q]	1.17
HEFRDEISVLKANNPHFDKIFEKHNQLDDDIKTANQQNASDAEVSHMKKQKLKLKDEIHSMIIEYREK [E35N]	0.058
HEFRDEISVLKANNPHFDKIFEKHNQLDDDIKTACQQNASDAEVSHMKKQKLKLKDEIHSMIIEYREK [E35C]	0.531
HEFRDEISVLKANNPHFDKIFEKHNQLDDDIKTAAQQNASDAEVSHMKKQKLKLKDEIHSMIIEYREK [E35A]	0.281
HEFRDEISVLKANNPHFDKIFEKHNQLDDDIKTAFQQNASDAEVSHMKKQKLKLKDEIHSMIIEYREK [E35F]	0.495
HEFRDEISVLKANNPHFDKIFEKHNQLDDDIKTAVQQNASDAEVSHMKKQKLKLKDEIHSMIIEYREK [E35V]	0.864
HEFRDEISVLKANNPHFDKIFEKHNQLDDDIKTATQQNASDAEVSHMKKQKLKLKDEIHSMIIEYREK [E35T]	0.201
HEFRDEISVLKANNPHFDKIFEKHNQLDDDIKTASQQNASDAEVSHMKKQKLKLKDEIHSMIIEYREK [E35S]	0.162
HEFRDEISVLKANNPHFDKIFEKHNQLDDDIKTAMQQNASDAEVSHMKKQKLKLKDEIHSMIIEYREK [E35M]	1.49
HEFRDEISVLKANNPHFDKIFEKHNQLDDDIKTALQQNASDAEVSHMKKQKLKLKDEIHSMIIEYREK [E35L]	1.67
HEFRDEISVLKANNPHFDKIFEKHNQLDDDIKTAENQNASDAEVSHMKKQKLKLKDEIHSMIIEYREK [Q36N]	0.652
HEFRDEISVLKANNPHFDKIFEKHNQLDDDIKTAELQNASDAEVSHMKKQKLKLKDEIHSMIIEYREK [Q36L]	1.02
HEFRDEISVLKANNPHFDKIFEKHNQLDDDIKTAEKQNASDAEVSHMKKQKLKLKDEIHSMIIEYREK [Q36K]	0.963
HEFRDEISVLKANNPHFDKIFEKHNQLDDDIKTAEGQNASDAEVSHMKKQKLKLKDEIHSMIIEYREK [Q36G]	0.883
HEFRDEISVLKANNPHFDKIFEKHNQLDDDIKTAEIQNASDAEVSHMKKQKLKLKDEIHSMIIEYREK [Q36I]	0.263
HEFRDEISVLKANNPHFDKIFEKHNQLDDDIKTAEHQNASDAEVSHMKKQKLKLKDEIHSMIIEYREK [Q36H]	-0.003
HEFRDEISVLKANNPHFDKIFEKHNQLDDDIKTAEMQNASDAEVSHMKKQKLKLKDEIHSMIIEYREK [Q36M]	1.31
HEFRDEISVLKANNPHFDKIFEKHNQLDDDIKTAEDQNASDAEVSHMKKQKLKLKDEIHSMIIEYREK [Q36D]	0.576
HEFRDEISVLKANNPHFDKIFEKHNQLDDDIKTAECQNASDAEVSHMKKQKLKLKDEIHSMIIEYREK [Q36C]	0.694
HEFRDEISVLKANNPHFDKIFEKHNQLDDDIKTAEFQNASDAEVSHMKKQKLKLKDEIHSMIIEYREK [Q36F]	0.822

Variant	folding stability dG [kcal/mol]
HEFRDEISVLKANNPHFDKIFEKHNQLDDDIKTAERQNASDAEVSHMKKQKLKLKDEIHSMIIEYREK [Q36R]	1.25
HEFRDEISVLKANNPHFDKIFEKHNQLDDDIKTAEEQNASDAEVSHMKKQKLKLKDEIHSMIIEYREK [Q36E]	0.904
HEFRDEISVLKANNPHFDKIFEKHNQLDDDIKTAEAQNASDAEVSHMKKQKLKLKDEIHSMIIEYREK [Q36A]	1.01
HEFRDEISVLKANNPHFDKIFEKHNQLDDDIKTAESQNASDAEVSHMKKQKLKLKDEIHSMIIEYREK [Q36S]	1.17
HEFRDEISVLKANNPHFDKIFEKHNQLDDDVKTAEQQNASDAEVSHMKKQKLKLKDEIHSMIIEYREK [I31V]	-0.196
HEFRDEISVLKANNPHFDKIFEKHNQLDDDIKTCEQQNASDAEVSHMKKQKLKLKDEIHSMIIEYREK [A34C]	0.429
HEFRDEISVLKANNPHFDKIFEKHNQLDDDIKTWEQQNASDAEVSHMKKQKLKLKDEIHSMIIEYREK [A34W]	0.215
HEFRDEISVLKANNPHFDKIFEKHNQLDDDIKTVEQQNASDAEVSHMKKQKLKLKDEIHSMIIEYREK [A34V]	-0.863
HEFRDEISVLKANNPHFDKIFEKHNQLDDDIKTKEQQNASDAEVSHMKKQKLKLKDEIHSMIIEYREK [A34K]	0.579
HEFRDEISVLKANNPHFDKIFEKHNQLDDDIKTQEQQNASDAEVSHMKKQKLKLKDEIHSMIIEYREK [A34Q]	-0.306
HEFRDEISVLKANNPHFDKIFEKHNQLDDDIKTFEQQNASDAEVSHMKKQKLKLKDEIHSMIIEYREK [A34F]	0.526
HEFRDEISVLKANNPHFDKIFEKHNQLDDDIKTYEQQNASDAEVSHMKKQKLKLKDEIHSMIIEYREK [A34Y]	0.389
HEFRDEISVLKANNPHFDKIFEKHNQLDDDIKTREQQNASDAEVSHMKKQKLKLKDEIHSMIIEYREK [A34R]	0.663
HEFRDEISVLKANNPHFDKIFEKHNQLDDDIKTHEQQNASDAEVSHMKKQKLKLKDEIHSMIIEYREK [A34H]	-0.482
HEFRDEISVLKANNPHFDKIFEKHNQLDDDIKTIEQQNASDAEVSHMKKQKLKLKDEIHSMIIEYREK [A34I]	-0.296
HEFRDEISVLKANNPHFDKIFEKHNQLDDDIKTMEQQNASDAEVSHMKKQKLKLKDEIHSMIIEYREK [A34M]	0.859
HEFRDEISVLKANNPHFDKIFEKHNQLDDDIKTLEQQNASDAEVSHMKKQKLKLKDEIHSMIIEYREK [A34L]	1.21
HEFRDEISVLKANNPHFDKIFEKHNQLDDDICTAEQQNASDAEVSHMKKQKLKLKDEIHSMIIEYREK [K32C]	0.133
HEFRDEISVLKANNPHFDKIFEKHNQLDDDINTAEQQNASDAEVSHMKKQKLKLKDEIHSMIIEYREK [K32N]	0.323
HEFRDEISVLKANNPHFDKIFEKHNQLDDDIRTAEQQNASDAEVSHMKKQKLKLKDEIHSMIIEYREK [K32R]	1.18
HEFRDEISVLKANNPHFDKIFEKHNQLDDDIDTAEQQNASDAEVSHMKKQKLKLKDEIHSMIIEYREK [K32D]	-0.682
HEFRDEISVLKANNPHFDKIFEKHNQLDDDIETAEQQNASDAEVSHMKKQKLKLKDEIHSMIIEYREK [K32E]	0.008
HEFRDEISVLKANNPHFDKIFEKHNQLDDDIMTAEQQNASDAEVSHMKKQKLKLKDEIHSMIIEYREK [K32M]	0.333
HEFRDEISVLKANNPHFDKIFEKHNQLDDDIHTAEQQNASDAEVSHMKKQKLKLKDEIHSMIIEYREK [K32H]	0.348
HEFRDEISVLKANNPHFDKIFEKHNQLDDDIWTAEQQNASDAEVSHMKKQKLKLKDEIHSMIIEYREK [K32W]	0.34
HEFRDEISVLKANNPHFDKIFEKHNQLDDDIATAEQQNASDAEVSHMKKQKLKLKDEIHSMIIEYREK [K32A]	0.452
HEFRDEISVLKANNPHFDKIFEKHNQLDDDIVTAEQQNASDAEVSHMKKQKLKLKDEIHSMIIEYREK [K32V]	0.251

Variant	folding stability dG [kcal/mol]
HEFRDEISVLKANNPHFDKIFEKHNQLDDDISTAEQQNASDAEVSHMKKQKLKLKDEIHSMIIEYREK [K32S]	0.171
HEFRDEISVLKANNPHFDKIFEKHNQLDDDIITAEQQNASDAEVSHMKKQKLKLKDEIHSMIIEYREK [K32I]	0.135
HEFRDEISVLKANNPHFDKIFEKHNQLDDDIYTAEQQNASDAEVSHMKKQKLKLKDEIHSMIIEYREK [K32Y]	0.157
HEFRDEISVLKANNPHFDKIFEKHNQLDDDIQTAEQQNASDAEVSHMKKQKLKLKDEIHSMIIEYREK [K32Q]	0.87
HEFRDEISVLKANNPHFDKIFEKHNQLDDDIFTAEQQNASDAEVSHMKKQKLKLKDEIHSMIIEYREK [K32F]	0.278
HEFRDEISVLKANNPHFDKIFEKHNQLDDDILTAEQQNASDAEVSHMKKQKLKLKDEIHSMIIEYREK [K32L]	0.566
HEFRDEISVLKANNPHFDKIFEKHNQLDDDITTAEQQNASDAEVSHMKKQKLKLKDEIHSMIIEYREK [K32T]	0.187
HEFRDEISVLKANNPHFDKIFEKHNQLDDDIKGAEQQNASDAEVSHMKKQKLKLKDEIHSMIIEYREK [T33G]	-0.016
HEFRDEISVLKANNPHFDKIFEKHNQLDDDIKVAEQQNASDAEVSHMKKQKLKLKDEIHSMIIEYREK [T33V]	1.3
HEFRDEISVLKANNPHFDKIFEKHNQLDDDIKKAEQQNASDAEVSHMKKQKLKLKDEIHSMIIEYREK [T33K]	1.43
HEFRDEISVLKANNPHFDKIFEKHNQLDDDIKWAEQQNASDAEVSHMKKQKLKLKDEIHSMIIEYREK [T33W]	0.943
HEFRDEISVLKANNPHFDKIFEKHNQLDDDIKQAEQQNASDAEVSHMKKQKLKLKDEIHSMIIEYREK [T33Q]	1.02
HEFRDEISVLKANNPHFDKIFEKHNQLDDDIKIAEQQNASDAEVSHMKKQKLKLKDEIHSMIIEYREK [T33I]	0.854
HEFRDEISVLKANNPHFDKIFEKHNQLDDDIKMAEQQNASDAEVSHMKKQKLKLKDEIHSMIIEYREK [T33M]	1.26
HEFRDEISVLKANNPHFDKIFEKHNQLDDDIKNAEQQNASDAEVSHMKKQKLKLKDEIHSMIIEYREK [T33N]	1.07
HEFRDEISVLKANNPHFDKIFEKHNQLDDDIKFAEQQNASDAEVSHMKKQKLKLKDEIHSMIIEYREK [T33F]	1
HEFRDEISVLKANNPHFDKIFEKHNQLDDDIKYAEQQNASDAEVSHMKKQKLKLKDEIHSMIIEYREK [T33Y]	0.829
HEFRDEISVLKANNPHFDKIFEKHNQLDDDIKLAEQQNASDAEVSHMKKQKLKLKDEIHSMIIEYREK [T33L]	1.14
HEFRDEISVLKANNPHFDKIFEKHNQLDDDIKSAEQQNASDAEVSHMKKQKLKLKDEIHSMIIEYREK [T33S]	0.866
HEFRDEISVLKANNPHFDKIFEKHNQLDDDIKEAEQQNASDAEVSHMKKQKLKLKDEIHSMIIEYREK [T33E]	0.363
HEFRDEISVLKANNPHFDKIFEKHNQLDDDIKRAEQQNASDAEVSHMKKQKLKLKDEIHSMIIEYREK [T33R]	1.55
HEFRDEISVLKANNPHFDKIFEKHNQLDDDIKHAEQQNASDAEVSHMKKQKLKLKDEIHSMIIEYREK [T33H]	0.96
HEFRDEISVLKANNPHFDKIFEKHNQLDDDIKDAEQQNASDAEVSHMKKQKLKLKDEIHSMIIEYREK [T33D]	0.706
HEFRDEISVLKANNPHFDKIFEKHNQLDDDIKCAEQQNASDAEVSHMKKQKLKLKDEIHSMIIEYREK [T33C]	0.988
HEFRDEISVLKANNPHFDKIFEKHNQLDDDIKAAEQQNASDAEVSHMKKQKLKLKDEIHSMIIEYREK [T33A]	1.14
